Assay results: publication doi:10.1101/2023.07.20.549453 (bioRxiv, 2023)

B1: Human Dlk2 extracellular domain (Dlk2EC, residues 1-306) (domain or fragment, UniProt Q6UY11 27-306, looked up)
chain: DDCSSHCDLAHGCCAPDGSCRCDPGWEGLHCERCVRMPGCQHGTCHQPWQCICHSGWAGKFCDKDEHICTTQSPCQNGGQCMYDGGGEYHCVCLPGFHGRDCERKAGPCEQAGSPCRNGGQCQDDQGFALNFTCRCLVGFVGARCEVNVDDCLMRPCANGATCLDGINRFSCLCPEGFAGRFCTINLDDCASRPCQRGARCRDRVHDFDCLCPSGYGGKTCELVLPVPDPPTTVDTPLGPTSAVVVPATGPAPHSAGAGLLRISVKEVVRRQEAGLGEPS
B2: Human Notch1 intracellular domain (NICD) (residues 2280-2550) (domain or fragment, UniProt P46531 2280-2550, looked up)
chain: SGTSTVLGSSSGGALNFTVGGSTSLNGQCEWLSRLQSGMVPNQYNPLRGSVAPGPLSTQAPSLQHGMVGPLHSSLAASALSQMMSYQGLPSTRLATQPHLVQTQQVQPQNLQMQQQNLQPANIQQQQSLQPPPPPPQPHLGVSSAASGHLGRSFLSGEPSQADVQPLGPSSLAVHTILPQESPALPTSLPSSLVPPVTAAQFLTPPSQHSYSSPVDNTPSHQLQVPEHPFLTPSPESPDQWSSSSPHSNVSDWSEGVSSPPTSMQSQIARI

Experiments:
Human Numb full-length = target: T1, Human Numb full-length (human, UniProt P49757 1-651); assay: SPR
T1 sequence (looked up): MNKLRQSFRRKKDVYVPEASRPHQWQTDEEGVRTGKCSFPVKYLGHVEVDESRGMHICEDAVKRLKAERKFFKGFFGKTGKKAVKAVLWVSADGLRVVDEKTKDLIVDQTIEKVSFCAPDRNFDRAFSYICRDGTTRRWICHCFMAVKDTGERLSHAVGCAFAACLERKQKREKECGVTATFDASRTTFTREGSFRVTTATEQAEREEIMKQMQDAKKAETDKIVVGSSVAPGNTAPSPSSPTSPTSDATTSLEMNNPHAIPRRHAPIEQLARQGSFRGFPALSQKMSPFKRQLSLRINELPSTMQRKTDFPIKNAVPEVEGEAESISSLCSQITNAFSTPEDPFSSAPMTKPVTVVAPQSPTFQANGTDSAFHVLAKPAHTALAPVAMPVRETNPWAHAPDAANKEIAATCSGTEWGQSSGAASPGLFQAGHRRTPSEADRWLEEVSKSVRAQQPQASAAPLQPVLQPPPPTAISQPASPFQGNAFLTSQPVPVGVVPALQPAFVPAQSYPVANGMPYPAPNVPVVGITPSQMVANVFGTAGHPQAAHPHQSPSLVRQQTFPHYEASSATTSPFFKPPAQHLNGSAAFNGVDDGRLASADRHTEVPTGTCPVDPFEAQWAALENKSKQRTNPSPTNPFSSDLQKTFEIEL

[1] = target: Human Mdm2 (residues 119-438) (human, UniProt Q00987-11 119-438); assay: SPR
Sequence of Human Mdm2 (residues 119-438) (Q00987 113-432): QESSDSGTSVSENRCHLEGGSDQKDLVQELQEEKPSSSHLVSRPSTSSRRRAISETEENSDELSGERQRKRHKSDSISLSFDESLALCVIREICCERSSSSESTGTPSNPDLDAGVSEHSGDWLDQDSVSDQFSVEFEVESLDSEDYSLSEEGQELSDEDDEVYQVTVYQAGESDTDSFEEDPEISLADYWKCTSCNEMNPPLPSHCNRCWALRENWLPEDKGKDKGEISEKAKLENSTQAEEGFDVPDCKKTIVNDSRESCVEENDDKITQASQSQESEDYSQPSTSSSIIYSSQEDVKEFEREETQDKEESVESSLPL

Row | Binder | Kd (Human Numb full-length) [nM] | Kd [1] [nM]
1 | B1 | ~2.4 | ~3.5
2 | B2 | ~14.3 | –
